Columns and labels:
C3b [1] = biological target: T1, C3b (human, UniProt P01024 23-667; P01024 749-1663); experiment: bio-layer interferometry, binder on anti-penta his biosensors; reference EWE-hC3Nb1 on C3b
T1 construct: also called human C3b
Experimental: FIGS. 8A-8B Bio-layer interferometry-based analysis of EWEμH. (FIG. 8A) Anti-penta his biosensors were coated with EWEμH. The sensors were transferred into a dilution series from 1.5625-50 nM C3b. (FIG. 8B) Anti-penta his biosensors were coated with EWEμH and transferred into an iC3b dilution series ranging from 3.125-50 nM.
(§1) Bio-layer interferometry experiments. All experiments were performed in 20 mM HEPES pH 7.5, […]. All experiments were performed on an Octet RED96 (Fortébio Pall Corporation) instrument operating at 30° C., shaking at 1000 rpm. EWE-hC3Nb1, EWEμH or EWEnH was immobilized on anti-penta his biosensor (Fortebio Pall Corporation) and the sensors were transferred into dilution series of C3b or iC3b. Measurements of 0 nM analyte were subtracted from sensorgrams for normalization and the sensorgrams were fitted to a 1:1 binding model using the GraphPad Prism (version 6.01) software.

native C3 = biological target: T2, native C3 (human, UniProt P01024 23-667; P01024 668-1663); experiment: size exclusion chromatography
T2 construct: also called Complement component 3
Experimental: (§2) Size exclusion chromatography assay. 200 μg C3b was mixed with a 2-fold molar excess of EWE-hC3Nb1 or left untreated. The mix was diluted to 400 μL in 20 mM HEPES pH 7.5, 150 mM NaCl and applied to a Superdex 200 increase (GE Healthcare) column equilibrated in dilution buffer. SEC assaying binding of EWE-hC3Nb1 to native C3 was performed similarly. Peak fraction were analyzed by SDS PAGE.

C3b [2] = biological target: T1, C3b; experiment: size exclusion chromatography, 2-fold molar excess of EWE-hC3Nb1; SDS-PAGE of peak fractions confirmed the complex
Experimental: as §2

C3b [3] = biological target: T1, C3b; experiment: bio-layer interferometry, summary of affinities (FIG. 10)
Experimental: FIGS. 9A-9B Bio-layer interferometry-based analysis of EWEnH. (FIG. 9A) Anti-penta his biosensors were coated with EWEnH. The sensors were transferred into a dilution series from 3.125-100 nM C3b. (FIG. 9B) Anti-penta his biosensors were coated with EWEnH. The iC3b concentration tested ranged from 6.25-100 nM.
as §1

T1 sequence (P01024 23-667 limits assumed, chain 1 of 2): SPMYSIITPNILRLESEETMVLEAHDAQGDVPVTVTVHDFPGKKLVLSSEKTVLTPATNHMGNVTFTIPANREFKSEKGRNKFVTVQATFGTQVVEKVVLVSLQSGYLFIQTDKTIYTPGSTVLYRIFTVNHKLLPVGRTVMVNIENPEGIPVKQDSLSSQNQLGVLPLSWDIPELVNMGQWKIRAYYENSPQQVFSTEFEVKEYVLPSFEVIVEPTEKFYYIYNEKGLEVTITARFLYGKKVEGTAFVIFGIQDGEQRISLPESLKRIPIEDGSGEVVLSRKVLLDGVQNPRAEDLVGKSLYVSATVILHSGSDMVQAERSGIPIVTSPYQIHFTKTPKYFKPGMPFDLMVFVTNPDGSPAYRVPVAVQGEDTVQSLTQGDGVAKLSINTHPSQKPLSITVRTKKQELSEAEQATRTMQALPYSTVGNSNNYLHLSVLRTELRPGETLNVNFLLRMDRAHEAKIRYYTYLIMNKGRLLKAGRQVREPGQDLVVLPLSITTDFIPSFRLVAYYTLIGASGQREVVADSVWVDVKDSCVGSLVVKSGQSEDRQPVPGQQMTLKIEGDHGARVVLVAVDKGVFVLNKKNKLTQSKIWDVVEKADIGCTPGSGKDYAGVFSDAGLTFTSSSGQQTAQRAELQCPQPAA
T1 sequence (P01024 749-1663 limits assumed, chain 2 of 2): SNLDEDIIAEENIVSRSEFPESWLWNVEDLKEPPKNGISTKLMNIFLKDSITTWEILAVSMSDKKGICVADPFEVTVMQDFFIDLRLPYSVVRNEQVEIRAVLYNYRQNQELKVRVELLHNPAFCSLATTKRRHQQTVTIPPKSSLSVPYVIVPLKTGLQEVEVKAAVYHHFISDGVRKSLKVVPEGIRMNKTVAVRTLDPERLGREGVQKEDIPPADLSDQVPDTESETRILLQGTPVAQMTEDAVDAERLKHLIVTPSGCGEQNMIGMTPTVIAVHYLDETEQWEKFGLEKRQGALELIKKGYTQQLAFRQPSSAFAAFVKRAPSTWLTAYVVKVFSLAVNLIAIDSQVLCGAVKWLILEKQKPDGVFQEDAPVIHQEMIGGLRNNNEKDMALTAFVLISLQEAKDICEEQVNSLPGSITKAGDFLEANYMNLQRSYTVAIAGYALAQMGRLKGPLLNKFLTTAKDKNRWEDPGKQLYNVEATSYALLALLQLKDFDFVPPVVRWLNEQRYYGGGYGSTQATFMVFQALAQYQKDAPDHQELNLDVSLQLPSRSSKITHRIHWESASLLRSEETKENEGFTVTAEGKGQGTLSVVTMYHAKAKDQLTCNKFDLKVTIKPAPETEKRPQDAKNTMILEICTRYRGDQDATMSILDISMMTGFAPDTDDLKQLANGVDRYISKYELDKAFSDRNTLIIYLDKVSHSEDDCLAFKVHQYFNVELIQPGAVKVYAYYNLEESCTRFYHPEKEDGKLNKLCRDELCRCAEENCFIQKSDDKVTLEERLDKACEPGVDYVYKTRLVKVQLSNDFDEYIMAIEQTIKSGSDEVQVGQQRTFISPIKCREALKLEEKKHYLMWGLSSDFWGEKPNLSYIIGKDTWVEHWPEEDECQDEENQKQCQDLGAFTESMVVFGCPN
T2 sequence (P01024 23-667, chain 1 of 2): as the sequence (P01024 23-667 limits assumed, chain 1 of 2) above
T2 sequence (P01024 668-1663, chain 2 of 2): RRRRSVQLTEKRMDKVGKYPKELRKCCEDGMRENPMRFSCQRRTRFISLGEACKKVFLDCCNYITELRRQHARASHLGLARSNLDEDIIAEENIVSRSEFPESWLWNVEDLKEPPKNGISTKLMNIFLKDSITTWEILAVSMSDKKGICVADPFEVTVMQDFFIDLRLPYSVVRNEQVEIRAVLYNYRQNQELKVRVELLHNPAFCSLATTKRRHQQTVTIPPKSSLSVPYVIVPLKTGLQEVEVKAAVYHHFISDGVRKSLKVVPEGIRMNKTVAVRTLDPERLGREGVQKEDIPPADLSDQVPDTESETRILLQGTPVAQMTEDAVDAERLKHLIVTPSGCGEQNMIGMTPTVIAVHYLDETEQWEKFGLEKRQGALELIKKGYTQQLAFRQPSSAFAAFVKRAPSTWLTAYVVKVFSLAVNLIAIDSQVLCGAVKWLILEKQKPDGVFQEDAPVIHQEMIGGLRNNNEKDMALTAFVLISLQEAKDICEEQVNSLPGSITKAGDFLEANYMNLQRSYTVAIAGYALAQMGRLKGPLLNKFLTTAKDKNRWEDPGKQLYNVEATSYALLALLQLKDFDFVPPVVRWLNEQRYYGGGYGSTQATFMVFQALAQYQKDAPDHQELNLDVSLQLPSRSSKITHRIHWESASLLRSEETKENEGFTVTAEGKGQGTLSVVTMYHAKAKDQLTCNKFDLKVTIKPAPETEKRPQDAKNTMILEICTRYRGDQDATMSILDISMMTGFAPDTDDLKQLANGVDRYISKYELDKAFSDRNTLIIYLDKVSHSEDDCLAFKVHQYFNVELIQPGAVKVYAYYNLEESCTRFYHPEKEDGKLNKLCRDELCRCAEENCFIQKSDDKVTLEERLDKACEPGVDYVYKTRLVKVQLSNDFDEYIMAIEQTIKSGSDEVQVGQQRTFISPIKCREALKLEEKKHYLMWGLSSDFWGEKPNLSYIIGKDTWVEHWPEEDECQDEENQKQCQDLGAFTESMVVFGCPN

B1: EWEµH (other)
chain: EWEQVQLVETGGGLVQAGGSLRLSCAASGSIFSINAMGWFRQAPGKEREFVATINRSGGRTYYADSVKGRFTISRDNGKNMVYLQMHSLKPEDTAIYYCAAGTGWSPQTDNEYNYWGQGTQVTVSSGGGGSGGGGSGGGGSGGGGSRPCGHPGDTPFGTFTLTGGNVFEYGVKAVYTCNEGYQLLGEINYRECDTDGWTNDIPICEVVKCLPVTAPENGKIVSSAMEPDREYHFGQAVRFVCNSGYKIEGDEEMHCSDDGFWSKEKPKCVEISCKSPDVINGSPISQKIIYKENERFQYKCNMGYEYSERGDAVCTESGWRPLPSCEEAGGGGGGGGGGGGGKCGPPPPIDNGDITSFPLSVYAPASSVEYQCQNLYQLEGNKRITCRNGQWSEPPKCLHPCVISREIMENYNIALRWTAKQKLYSRTGESVEFVCKRGYRLSSRSHTLRTTCWDGKLEYPTCAKRENLYFQG
notes: expressed in HEK293 cells; also called EWEuH; fusion EWEµH; not shown: His tag implied by HisTrap purification and capture on anti-penta his biosensors
- fold stronger binding than EWE-hC3Nb1 (C3b [1]): ~10 fold

B2: EWE-hC3Nb1 (VHH)
VHH: QVQLVETGGGLVQAGGSLRLSCAASGSIFSINAMGWFRQAPGKEREFVATINRSGGRTYYADSVKGRFTISRDNGKNMVYLQMHSLKPEDTAIYYCAAGTGWSPQTDNEYNYWGQGTQVTVSS
notes: hC3Nb1 with an N-terminal Glu-Trp-Glu motif; expressed in E. coli; also called single domain antibody EWE-hC3Nb1; EWE-hC3Nb1 nanobody; not shown: His tag implied by HisTrap purification and capture on anti-penta his biosensors
- binding result (native C3): no binding (tested: 2-fold molar excess of EWE-hC3Nb1)
- binding result (C3b [2]): binds

B3: EWEnH (other)
chain: EWEQVQLVETGGGLVQAGGSLRLSCAASGSIFSINAMGWFRQAPGKEREFVATINRSGGRTYYADSVKGRFTISRDNGKNMVYLQMHSLKPEDTAIYYCAAGTGWSPQTDNEYNYWGQGTQVTVSSGGGGSGGGGSGGGGSGGGGSRPCGHPGDTPFGTFTLTGGNVFEYGVKAVYTCNEGYQLLGEINYRECDTDGWTNDIPICEVVKCLPVTAPENGKIVSSAMEPDREYHFGQAVRFVCNSGYKIEGDEEMHCSDDGFWSKEKPKCVEISCKSPDVINGSPISQKIIYKENERFQYKCNMGYEYSERGDAVCTESGWRPLPSCEEA
notes: expressed in HEK293 cells; also called fusion protein EWEnH; not shown: His tag implied by HisTrap purification and capture on anti-penta his biosensors
- binding result (C3b [3]): binds
